Assays:
[1] = target: T1, cynomolgus monkey ABCC1 (UniProt Q864R9 1-1531); test: FACS titration on C6 cells; C6 cells
[2] = target: T2, human ATP Binding Cassette Subfamily C Member 1 (ABCC1) (UniProt P33527 1-1531); test: FACS titration on C6 cells
[3] = target: T1, cynomolgus monkey ABCC1; test: FACS titration on C6 cells
[4] = target: T1, cynomolgus monkey ABCC1; test: FACS titration on C6-cC1 cells
[5] = target: T2, human ATP Binding Cassette Subfamily C …; test: FACS titration on C6-hC1 cells
[6] = target: T2, human ATP Binding Cassette Subfamily C …; test: FACS titration on C6 cells; remark: listed apart in the source
[7] = target: T1, cynomolgus monkey ABCC1; test: FACS titration on C6-cC1 cells; C6 cells
[8] = target: T2, human ATP Binding Cassette Subfamily C …; test: FACS titration on H69AR cells
[9] = target: T1, cynomolgus monkey ABCC1; test: FACS titration on C6-cC1 cells; remark: listed apart in the source
[10] = target: T2, human ATP Binding Cassette Subfamily C …; test: FACS titration on C6-hC1 cells; remark: listed apart in the source
[11] = target: C1.844.hu41; test: FACS cell binding
[12] = target: C1.844.hu31; test: FACS cell binding
[13] = target: C1.861.hu51; test: FACS cell binding
[14] = target: C1.861.hu31; test: FACS cell binding
[15] = target: C1.831.hu31; test: FACS cell binding
[16] = target: T2, human ATP Binding Cassette Subfamily C …; test: FACS cell binding
[17] = target: T1, cynomolgus monkey ABCC1; test: FACS cell binding

B1: C1.773 (antibody, V domains shown)
VH: EIQLAQSGPELVKPGASVKMSCKASGYSFIGYFMNWVKQSHGKSLEWIGRINPYNGDTFYNQKFKGKATLTVDKSSSTAHMELRSLTSEDSALYYCTRSGWGYDVYSFDYWGQGTLVTVSS
VL: DIQMTQTPSSLSASLGDRVTISCRASQDISNYLNWYQQKPDGTVKLLIYYTSRLHSGVPSRFSGSGSGTDYSLTISNLEQEDIATYFCQQGNTLPWTFGGGTKLEIK
In the case of B1, the Kd [1] is reported as 19.1 nM, the Kd [2] is reported as 1.9 nM and the Kd [3] is reported as 2.7 nM. It also gave a Kd [4] of 5.9 nM, a Kd [5] of 12.7 nM and a Kd [6] of 6.5 nM. It also gave a Kd [7] of 4 nM, a Kd [8] of 2.5 nM and a Kd [9] of 4.6 nM. The Kd [10] was 3.7 nM.

B2: C6.hC1 (other)
chain: MALRGFCSADGSDPLWDWNVTWNTSNPDFTKCFQNTVLVWVPCFYLWACFPFYFLYLSRHDRGYIQMTPLNKTKTALGFLLWIVCWADLFYSFWERSRGIFLAPVFLVSPTLLGITMLLATFLIQLERRKGVQSSGIMLTFWLVALVCALAILRSKIMTALKEDAQVDLFRDITFYVYFSLLLIQLVLSCFSDRSPLFSETIHDPNPCPESSASFLSRITFWWITGLIVRGYRQPLEGSDLWSLNKEDTSEQVVPVLVKNWKKECAKTRKQPVKVVYSSKDPAQPKESSKVDANEEVEALIVKSPQKEWNPSLFKVLYKTFGPYFLMSFFFKAIHDLMMFSGPQILKLLIKFVNDTKAPDWQGYFYTVLLFVTACLQTLVLHQYFHICFVSGMRIKTAVIGAVYRKALVITNSARKSSTVGEIVNLMSVDAQRFMDLATYINMIWSAPLQVILALYLLWLNLGPSVLAGVAVMVLMVPVNAVMAMKTKTYQVAHMKSKDNRIKLMNEILNGIKVLKLYAWELAFKDKVLAIRQEELKVLKKSAYLSAVGTFTWVCTPFLVALCTFAVYVTIDENNILDAQTAFVSLALFNILRFPLNILPMVISSIVQASVSLKRLRIFLSHEELEPDSIERRPVKDGGGTNSITVRNATFTWARSDPPTLNGITFSIPEGALVAVVGQVGCGKSSLLSALLAEMDKVEGHVAIKGSVAYVPQQAWIQNDSLRENILFGCQLEEPYYRSVIQACALLPDLEILPSGDRTEIGEKGVNLSGGQKQRVSLARAVYSNADIYLFDDPLSAVDAHVGKHIFENVIGPKGMLKNKTRILVTHSMSYLPQVDVIIVMSGGKISEMGSYQELLARDGAFAEFLRTYASTEQEQDAEENGVTGVSGPGKEAKQMENGMLVTDSAGKQLQRQLSSSSSYSGDISRHHNSTAELQKAEAKKEETWKLMEADKAQTGQVKLSVYWDYMKAIGLFISFLSIFLFMCNHVSALASNYWLSLWTDDPIVNGTQEHTKVRLSVYGALGISQGIAVFGYSMAVSIGGILASRCLHVDLLHSILRSPMSFFERTPSGNLVNRFSKELDTVDSMIPEVIKMFMGSLFNVIGACIVILLATPIAAIIIPPLGLIYFFVQRFYVASSRQLKRLESVSRSPVYSHFNETLLGVSVIRAFEEQERFIHQSDLKVDENQKAYYPSIVANRWLAVRLECVGNCIVLFAALFAVISRHSLSAGLVGLSVSYSLQVTTYLNWLVRMSSEMETNIVAVERLKEYSETEKEAPWQIQETAPPSSWPQVGRVEFRNYCLRYREDLDFVLRHINVTINGGEKVGIVGRTGAGKSSLTLGLFRINESAEGEIIIDGINIAKIGLHDLRFKITIIPQDPVLFSGSLRMNLDPFSQYSDEEVWTSLELAHLKDFVSALPDKLDHECAEGGENLSVGQRQLVCLARALLRKTKILVLDEATAAVDLETDDLIQSTIRTQFEDCTVLTIAHRLNTIMDYTRVIVLDKGEIQEYGAPSDLLQQRGLFYSMAKDAGLV
B2 gave a Kd [11] of 94 nM and a Kd [12] of 518 nM.

B3: C6.cC1 (other)
chain: MALRGFCSADGSDPLWDWNVTWYTSNPDFTKCFQNTVLVWVPCFYLWACFPFYFLYLSRHDRGYIQMTLLNKTKTALGFLLWIVCWADLFYSFWERSRGIFLAPVFLVSPTLLGITMLLATFLIQLERRKGVQSSGIMLTFWLVALLCALAILRSKIMTALKEDVQVDLFRDMTFYVYFSLVLIQLVLSCFSDRSPLFSETIHDPNPCPESSASFLSRITFWWITGLIVRGYRQPLEGSDLWSLNKEDTSEQVVPVLVKNWKKECAKTRKQPVKVVYSSKDPAQPKDSSKVDANEEVEALIVKSPQKEWNPSLFKVLYKTFGPYFLMSFFFKAIHDLMMFSGPEILKLLINFVNDTKAPDWQGYFYTALLFVAACLQTLVLHQYFHICFVSGMRIKTAVIGAVYRKALVITNAARKSSTVGEIVNLMSVDAQRFMDLATYINMIWSAPLQVILALYLLWRNLGPPILAGVAVMVLMVPVNAVMAMKTKTYQVAHMKSKDNRIKLMNEILNGIKVLKLYAWELAFKDKVLAIRQEELKVLKKSAYLAAVGTFTWVCTPFLVALCTFAVYVTIDKNNVLDAQKAFVSLALFNILRFPLNILPMVISSIVQASVSLKRLRIFLSHEELEPDSIERRPVKDGGDTNSITVRNATFTWARSDPPTLNGITFSIPEGALVAVVGQVGCGKSSLLSALLAEMDKVEGHVALKGSVAYVPQQAWIQNDSLQENILFGCQLEEPYYRSVIQACALLPDLEILPSGDRTEIGEKGVNLSGGQKQRVSLARAVYCNADIYLFDDPLSAVDAHVGKHIFENVIGPKGMLKNKTRILVTHSMSYLPQVDVIIVMSGGKISEMGSYQELLARDGAFAEFLRTYASAEQEQDPEDNGVTGVSGPGKEAKQMENGMLVTDSAGKQLQRQLSSSSSYSGDVSRQHNSTAELQKDGAKKEETWKLMEADKAQTGQVKLSVYWDYMKAIGLFISFLSIFLFICNHVAALASNYWLSLWTDDPIVNGTQEHTKVRLSVYGALGISQGIAVFGYSMAVSIGGILASRCLHVDLLHSILRSPMSFFERTPSGNLVNRFSKELDTVDSMIPEVIKMFMGSLFNVIGACIVILLATPIAAIIIPPLGLIYFFVQRFYVASSRQLKRLESVSRSPVYSHFNETLLGVSVIRAFEEQERFIHQSDLKVDENQKAYYPSIVANRWLAVRLECVGNCIVLFAALFAVISRHSLSAGLVGLSVSYSLQVTTYLNWLVRMSSEMETNIVAVERLKEYSETEKEAPWQIQETAPPSNWPQVGRVEFRNYCLRYREDLDFVLRHINVTINGGEKVGIVGRTGAGKSSLTLGLFRINESAEGEIIIDGINIARIGLHDLRFKITIIPQDPVLFSGSLRMNLDPFSQYSDEEVWTSLELAHLKGFVSALPDKLDHECAEGGENLSVGQRQLVCLARALLRKTKILVLDEATAAVDLETDDLIQSTIRTQFEDCTVLTIAHRLNTIMDYTRVIVLDKGEIQEYGAPSDLLQQRGLFYNMARDAGLV
B3 showed a Kd [11] of 107 nM, a Kd [13] of 125 nM and a Kd [14] of 110 nM. The Kd [15] was 1070 nM and the Kd [12] was 253 nM.

B4: C1.851.hu15 (antibody, V domains shown)
VH: EVQLQESGPGLVKPSETLSLTCTVSGFSLTNNGVSWIRQPPGKGLEWIAAISSGGNIYYNSAFKSRLTISRDTSKNQVSLKLSSVTAADTAVYYCARHRGYYGYNWGYFDYWGQGTLVTVSS
VL: DVVMTQAPSSLSASLGERISLTCRASQDIYGSLNWFQQKPDGTIKLLIYGTSSLDSGVPKRFSGSRSGSDYSLTISSLESEDFADYYCLQYASSPYTFGGGTKLEIK
B4 showed a Kd [16] of 119 nM and a Kd [17] of 210 nM.

B5: C1.851.hu12 (antibody, V domains shown)
VH: EVQLQESGPGLVKPSETLSLTCTVSGFSLTNNGVSWIRQPPGKGLEWIAAISSGGNIYYNSAFKSRLTISRDTSKNQVSLKLSSVTAADTAVYYCARHRGYYGYNWGYFDYWGQGTLVTVSS
VL: DIQLTQSPSSLSASVGDRVTITCKGSQNINNYLAWYQQKPGKAPKLLIYKTNSLQTGIPSRFSGSGSGTDYTLTISSLQPEDFATYYCYQYNNGYTFGQGTKLEIK
B5 showed a Kd [16] of 153 nM and a Kd [17] of 181 nM.

B6: C1.851.hu14 (antibody, V domains shown)
VH: EVQLQESGPGLVKPSETLSLTCTVSGFSLTNNGVSWIRQPPGKGLEWIAAISSGGNIYYNSAFKSRLTISRDTSKNQVSLKLSSVTAADTAVYYCARHRGYYGYNWGYFDYWGQGTLVTVSS
VL: DVVMTQTPLSLPVSLGDQASISCRSSQSIVHSNGNTYLEWYLQKPGQSPKLLIYKVSNRFSGVPDRFSGSGTGTDFTLKISRVEAEDLGVYYCFQGSHVPRTFGGGTKLEIK
With B6 the Kd [16] was 148 nM and the Kd [17] was 2030 nM.

Reference: patent publication US20230272117A1 (published 2023)
